Experimental data published in patent USRE40789 (BAYLOR COLLEGE OF MEDICINE, dated 2009).

Target: T1, GST-Dun1 (Saccharomyces cerevisiae, UniProt P39009 1-513)
T1 construct: Control GST fusion; The species is stated only in the background paragraph, not where the pull-down is told; not shown: glutathione S-transferase (GST) fusion partner
T1 sequence (looked up): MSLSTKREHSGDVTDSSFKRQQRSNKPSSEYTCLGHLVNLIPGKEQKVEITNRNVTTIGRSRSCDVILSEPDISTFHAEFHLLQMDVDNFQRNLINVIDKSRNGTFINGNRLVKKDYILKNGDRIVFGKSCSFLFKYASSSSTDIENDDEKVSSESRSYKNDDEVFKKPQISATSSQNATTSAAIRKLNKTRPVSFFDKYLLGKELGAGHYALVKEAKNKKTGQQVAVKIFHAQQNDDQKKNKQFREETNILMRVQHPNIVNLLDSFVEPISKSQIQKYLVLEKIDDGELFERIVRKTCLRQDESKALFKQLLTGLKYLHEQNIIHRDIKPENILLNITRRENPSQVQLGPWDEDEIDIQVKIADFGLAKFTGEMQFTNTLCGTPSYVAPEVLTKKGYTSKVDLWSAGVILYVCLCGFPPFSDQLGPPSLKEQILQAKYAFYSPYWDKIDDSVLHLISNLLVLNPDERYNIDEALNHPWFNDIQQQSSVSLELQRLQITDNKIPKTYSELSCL
Experiment: GST pull-down on glutathione beads from baculovirus extracts, immunoblot with anti Chk1 antibodies

B1: His6-tagged hChk1 (enzyme)
chain: MAVPFVEDWDLVQTLGEGAYGEVQLAVNRVTEEAVAVKIVDMKRAVDCPENIKKEICINKMLNHENVVKFYGHRREGNIQYLFLEYCSGGELFDRIEPDIGMPEPDAQRFFHQLMAGVVYLHGIGITHRDIKPENLLLDERDNLKISDFGLATVFRYNNRERLLNKMCGTLPYVAPELLKRREFHAEPVDVWSCGIVLTAMLAGELPWDQPSDSCQEYSDWKEKKTYLNPWKKIDSAPLALLHKILVENPSARITIPDIKKDRWYNKPLKKGAKRPRVTSGGVSESPSGFSKHIQSNLDFSPVNSASSEENVKYSSSQPEPRTGLSLWDTSPSYIDKLVQGISFSQPTCPDHMLLNSQLLGTPGSSQNPWQRLVKRMTRFFTKLDADKSYQCLKETCEKLGYQWKKSCMNQVTISTTDRRNNKLIFKVNLLEMDDKILVDFRLSKGDGLEFKRHFLKIKGKLIDIVSSQKVWLPATHHHHHH
notes: Expressed in baculovirus; used as a crude baculovirus extract in the pull-down and purified in the kinase assay; also called hChk1-His6; His6-tagged hChk1 derivative
  binding result: no binding
